Target: hnRNP A1 (UniProt P09651 1-251+304-372, internal_change)
Experiment: MST; 150 mM KCl; MST: 100 nM RED-labelled hnRNP A1, oligonucleotide titrated, 10 min incubation, working buffer with 150 mM KCl (40 mM HEPES-KOH pH 7.0 stated for the other assays); Hill model; temperature not stated
Settings: tags: RED dye label (MST); parallel G4 loop on short duplex stem GCUGC/GCAGC, 5' single-stranded UCAGUU

Chain of hnRNP A1 (P09651 other isoform, or with tags, fused parts or gaps): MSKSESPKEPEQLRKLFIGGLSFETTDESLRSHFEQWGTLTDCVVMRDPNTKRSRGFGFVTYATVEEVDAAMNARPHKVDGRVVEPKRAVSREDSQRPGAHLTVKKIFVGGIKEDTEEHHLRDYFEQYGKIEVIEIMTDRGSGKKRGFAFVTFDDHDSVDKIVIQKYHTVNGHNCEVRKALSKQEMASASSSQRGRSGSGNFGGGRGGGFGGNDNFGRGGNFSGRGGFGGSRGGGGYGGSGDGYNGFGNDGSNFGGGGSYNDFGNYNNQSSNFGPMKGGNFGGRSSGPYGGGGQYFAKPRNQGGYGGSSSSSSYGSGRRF

B1: chap-RNA (structured_RNA)
RNA: UCAGUUGCUGCGGGUGGGUGGGUGGGGCAGC
Kd: 6 ± 1 µM

From article PMC12562432, “G4 Oligonucleotide-Based Chaperones of Heterogeneous Nuclear Ribonucleoprotein A1”
